Patent US5858646

Biological target: uncleaved ~95 kD pol gene product of recombinant AcNPV-HIVYKpol (HIV-1 pol polypeptide lacking the first 91 amino acids at the NH2-terminus of the HIV-pol protease) (HIV-1)
Test: ELISA on plates coated with pol, no primary antibody, read at 450 nm

Question: For “goat anti-human Ig linked to horse radish peroxidase (Tago Diagnostics, cat 2393) (tool reagent)”, which OD is on record?
Answer: Its OD is less than 0.1 OD.
